The values that follow come from US20180179292A1, “RKIP AGONISM IN THE TREATMENT AND PREVENTION OF HEART FAILURE” (Leibniz-Institut für analytische Wissenschaften- ISAS-e.V., priority 2015, published 2018).

The test system of experiment [1] is neonatal rat cardiac fibroblasts. Kind of experiment: [3H]Thymidine incorporation in neonatal rat fibroblasts. The format is cell-based. As to conditions: adenovirally transduced Flag-RKIP, 0.1% FCS, 96 h. In general terms: Uptake of a labelled nucleoside into DNA is a usual measure of proliferation.
Experiment [2] relates to neonatal rat cardiomyocytes (NRCM). Kind of experiment: Contractile activity of neonatal rat cardiomyocytes. In kind it is cell-based. As to conditions: in the presence of isoprenaline (50 nM), 33° C., beats per minute. The method, then:
NRCM were cultured for 24 h and transduced as indicated with a control virus (LacZ) or a virus encoding RKIP-wt and/or treated with rituximab as indicated. The spontaneous contractions were measured at 33° C. for one minute and normalized for each experiment to LacZ under unstimulated conditions. NRCM were then stimulated with isoproterenol (50 nM) and after 2 min contractions were counted again. SEM; *, p<0.0001, n=5
Neonatal rat cardiomyocytes were isolated as described (Lorenz et al. Nature 2003, 426:574-579; Vidal et al., Cardiovasc. Res. 2012, 96:255-264). Cardiomyocytes were transduced by adenoviruses or treated with indicated antibodies. To monitor the contractile activity of cardiomyocytes, live cells were examined on a Zeiss Axiovert 135 microscope.

B1: RKIP: Raf kinase inhibitor protein, overexpressed in cells by adenoviral transduction (protein, UniProt P30086 2-187, looked up)
Phosphatidylethanolamine-bindi …: PVDLSKWSGPLSLQEVDEQPQHPLHVTYAGAAVDELGKVLTPTQVKNRPTSISWDGLDSGKLYTLVLTDPDAPSRKDPKYREWHHFLVVNMKGNDISSGTVLSDYVGSGPPKGTGLHRYVWLVYEQDRPLKCDEPILSNRSGDHRGKFKVASFRKKYELRAPVAGTCYQAEWDDYVPKLYEQLSGK
modifications: Flag tag
As to B1, in experiment [1], the “proliferation ([3H]thymidine incorporation)” value is reported as “minor but significant anti-proliferative effect”. The NRCM contractility entry in experiment [2] is recorded as “increased NRCM contractility”.
